Measured values: publication PMC10758295 (Cell reports, 2023)

Molecular target: CENP-A-H4 complex (UniProt P49450 1-140; P62805 1-103)
Assay: native gel or EMSA

Sequence of CENP-A-H4 complex (P49450 whole entry, one chain of several): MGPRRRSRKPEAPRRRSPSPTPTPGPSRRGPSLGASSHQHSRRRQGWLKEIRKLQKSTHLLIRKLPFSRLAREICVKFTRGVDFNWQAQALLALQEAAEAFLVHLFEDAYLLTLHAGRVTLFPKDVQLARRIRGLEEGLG

binding result: binds
B1: His6-EWSR1 (natural protein)
chain: MASTDYSTYSQAAAQQGYSAYTAQPTQGYAQTTQAYGQQSYGTYGQPTDVSYTQAQTTATYGQTAYATSYGQPPTGYTTPTAPQAYSQPVQGYGTGAYDTTTATVTTTQASYAAQSAYGTQPAYPAYGQQPAATAPTRPQDGNKPTETSQPQSSTGGYNQPSLGYGQSNYSYPQVPGSYPMQPVTAPPSYPPTSYSSTQPTSYDQSSYSQQNTYGQPSSYGQQSSYGQQSSYGQQPPTSYPPQTGSYSQAPSQYSQQSSSYGQQSSFRQDHPSSMGVYGQESGGFSGPGENRSMSGPDNRGRGRGGFDRGGMSRGGRGGGRGGMGSAGERGGFNKPGGPMDEGPDLDLGPPVDPDEDSDNSAIYVQGLNDSVTLDDLADFFKQCGVVKMNKRTGQPMIHIYLDKETGKPKGDATVSYEDPPTAKAAVEWFDGKDFQGSKLKVSLARKKPPMNSMRGGLPPREGRGMPPPLRGGPGGPGGPGGPMGRMGGRGGDRGGFPPRGPRGSRGNPSGGGNVQHRAGDWQCPNPGCGNQNFAWRTECNQCKAPKPEGFLPPPFPPPGGDRGRGGPGGMRGGRGGLMDRGGPGGMFRGGRGGDRGGFRGGRGMDRGGFGGGRRGGPGGPPGPLMEQMGGRRGGRGGPGKMDKGEHRQERRDRPY
